Experiment: soluble on expression in E. coli; label from the status in PepcDB or PDB records

Sequence	soluble on expression in E. coli
MTLVIGLTGGIASGKSTVANMLIEKGITVIDADIIAKQAVEKGMPAYRQIIDEFGEDILLSNGDIDRKKLGALVFTNEQKRLALNAIVHPAVRQEMLNRRDEAVANREAFVVLDIPLLFESKLESLVDKIIVVSVTKELQLERLMKRNQLTEEEAVSRIRSQMPLEEKTARADQVIDNSGTLEETKRQLDEIMNSWALEHHHHHH	soluble
MGSDKIHHHHHHMRRKIPSSTTLMAFEVAARHGSFARAAEELSLTEGAISRQIGRLEAFLGVTLFERVGNRVRLLPNGERYAAQVRESLDRLDRDSQYLMGQPSDGASLDIATIPTFAMRWLIPRLSRFQQKHPNITVHLAERMDPFVLAGSGFDAAIHFEHPAWTGMRTHQLLHEVLVPVCHPELLTGRKRKTALDELPRLHRRQNPEAWLQYSQETGTPLTNPAIGARYDLHGMLIEAALAGLGVALVPRLYVETELALGNLVAPWPEGKTISKTFCLILPEPIGLSREPIQAFAQWLLDEAKKGNSG	not soluble
MANANPFARIADRYDGTPPRLRPPLVTQAVGEVIPFVDTAGCFVEAYTPRRVAVRLDNEERLHNHLGGLHAAALALLAETATGLVVALNVPDGSSPLLRTMDISFENFARDAVQAEATLTDAETSQVRSRPLGQIAVDVALTAPDDDTTLVAGTLTWAWVPEARLVDEGERLEHHHHHH	not soluble
MQRETGSERVDVDMEKPGMISRWYDDKGFGFILPKTGGEEVFLHISAFRGDRRPRQGDQVWFLASQDAQGRLRAERARLDALTIDPPTVRRGAQAPVTRAQARPAPTPPSALQRPLA	not soluble
MQEGLVVVESCPRLGWAMESPENGTRQTAYEIEIREAFTGRSVWNSGKVTSSQSQLVPTEGADICLNNPFNYSWRVRVWDETDTPSEWSQEAKFRLASDDLSSGKWIGAITRKDSHLPEGRKFHGGELKKPEVKAAWEAVDTLAKKSICLRRTFQTGEAKGKNANRKSGKKIVEATAYVCGLGFYEFSLNGKKIGDSEFAPLWSDYDKSVYYNTYDVTEQLQDGENVVGILLGNGFYNVQGGRYRKLQISFGPPTLLFELVINYEDGTRETIRSDHEWKYDLSPITFNCIYGGEDYDARREQKGWNQVGFNDSHWRPVVVQEAPKGVLRSQMAPPVKIMERYDIQKVTKLNSEQVMAASKSTKRTVDPSAVVLDMGQNLAGFPEITVRGKRGQKVTLIVAEALMDEGACNQRQTGRQHYYEYTLKGEGDEIWHPRFSYYGFRYIQVEGAVLKGQKNPQKLPVLKNIQSCFIYNSAKKVSTFESSNRIFNAAHRLIEKAVRSNMQSVFTDCPHREKLGWLEQVHLNGPGLLYNYDLTAYAPQIMQNMADAQHPNGAMPTTAPEYVVFEGPGMDAFAESPEWGGSLVIFPFMYYETYGDDSLIKKYYQHMRRYTDYLKTRADNGILSFGLGDWYDYGDFRAGFSRNTPVPLVATAHYYMTVMYLIKAARMVGNEFDVRYYSSLAYDIMVAFNKRFLDSNTAQYGTGSQASNALPIFLQMIQSTGDKGDYTPDASLAAKVLTNLIKDVESHGNRLTTGDVGNRYLIQTLARNGQHELIYKMFNHEEAPGYGFQLKFGATTLTEQWDPRQGSSWNHFMMGQIDEWFFNSLIGIRPSTTLSASVNEKDEPMQGYQKFVIAPKPVGDLKYVKSTYETLYGTILVDWTRQSGTFTLNVSVPVNTTAIVYLPGEKEPKEVQSGTYKFVAAE	not soluble
MKSRREQSIEEAIVANYLKMMIDNVNVWPRHFLRSEDVYCKNPWTLFVTRDPIILHFGRYFFVNRSVNSGLTDGCEYGCWRIIGRDRVIKSVTTGKILGLKKVYKFCETDRKPKSVFKFLEKEKRRVRDRRIWAMEEYRFASTWKQDYVICKIRRLYPQPFDYMLAQHIRGYYK	soluble
AVSFTGVSGVKNIVAVTACPTGVAHTFMSAEAIEAYAKKQGWNVKVETRGQVGAGNEITVEEVAAADLVFVAADIDVPLDKFKGKPMYRTSTGLALKKTEQEFDKAFKEAKIF	not soluble
MIGRLRGIIIEKQPPLVLIEVGGVGYEVHMPMTCFYELPEAGQEAIVFTHFVVREDAQLLYGFNNKQERTLFKELIKTNGVGPKLALAILSGMSAQQFVNAVEREEVGALVKLPGIGKKTAERLIVEMKDRFKGLHGDLFTPAADLVLTSPASPATDDAEQEAVAALVALGYKPQEASRMVSKIARPDASSETLIREALRAAL	soluble
MGHHHHHHSHMTSYDQIWETFLNNCETSDFDVPQQEEDIYKSIRNAILHFNNRLRDNLKADNSTETVNRELSEDDLLILAHFLRYIFLLNKKTLFENTWQPFTNDVGIKNFGTQLNSLKQSVMDQKDEIERLILNAAVDYL	soluble
MGSDKIHHHHHHMSVHSEVLHALLKDPFIQKLIDAEPVFWANSGKKEGPLPRADEWATEIAEAEKRMQRFAPYIAEVFPETKGAKGIIESPLFEVQHMKGKLEAAYQQPFPGRWLLKCDHELPISGSIKARGGIYEVLKYAENLALQEGMLQETDDYRILQEERFTGFFSRYSIAVGSTGNLGLSIGIIGAALGFRVTVHMSADAKQWKKDLLRQKGVTVMEYETDYSEAVNEGRRQAEQDPFCYFIDDEHSRQLFLGYAVAASRLKTQLDCMNIKPSLETPLFVYLPCGVGGGPGGVAFGLKLLYGDDVHVFFAEPTHSPCMLLGLYSGLHEKISVQDIGLDNQTAADGLAVGRPSGFVGKLIEPLLSGCYTVEDNTLYTLLHMLAVSEDKYLEPSALAGMFGPVQLFSTEEGRRYAQKYKMEHAVHVVWGTGGSMVPKDEMAAYNRIGADLLKKRNGK	not soluble
MRFKVVGKNIVVTEALKEAAVKKVGKLDKYFRRDAEATITMSVQKNRHIVEVTIPFEGGLLRAEEDSPDMYASIDKVIDSLERQIRRNKTKLEKKVHDGSLRFENIKFDDDEVEEEPKFEVVRTKKFAIKPMTVEEAILQMNLLGHQFFMFSNAETNEANVVYRRKDGNYGLIEPEF	not soluble
MSSSLFAPTIETIDYPFPPKPVPLSDAQKADYKARIKQLLIEKDAVLVAHYYTDPEIQALAEETGGCVSDSLEMARFGRDHPAKTLIVAGVKFMGETAKILSPEKTILMPTLEATCSLDLGCPIDKFSAFCDAHPDHTVVVYANTSAAVKARADWVVTSSIALEIVEHLDSEGKKIIWGPDRHLGSYIAKQTGAEMLMWQGDCIVHDEFKANALRDLKSVYPDAAILVHPESPASVVAMADAVGSTSQLIKAAQTMPNERFIVATDRGIFYKMQQAAPGKTLIEAPTGGNGATCKSCAHCPWMAMNGLKAIEASLSNSDKTTHEIFVDEDLRVKALIPLTRMLDFAKTLNMKVKGNA	soluble
MAHHHHHHMNIEDDENKEKKETCLSYIKKINMSEIINDEAIGKRAEYLWNLALSAVYINVKLSMKYITLIKKITKNNLLFDNICCHYCNLIYIPFYNCKITHSPNQGKATYTCLLCKRKKKINLQHLSKHKNIYPLKHSDKHKPSTSNLSNVNFFLINEIDNYEIKKNNVPLNKDDTSNTENQLITKQENKNEDILKDVSCADMQKEEHIINQDNIINQDNIINQDNIINQDNIINQDNIINQDNIINQDNIINQDNIINQDNIINQDNIINKNDMYQNLSYLFRIDYGINKDDTQKGNEIYDKSIVNESEKCKSVHIENNKNDDNKNMNSESKNIKNERKRKSQNNNIAQNKNQGFPNVNMNDGFLNFNKSKKKKGKSILDIL	not soluble
SLRYIRQLCCVSLLCLSGSAVAANVRLQVEGLSGQLEKNVRAQLSTIESDEVTPDRRFRARVDDAIREGLKALGYYQPTIEFDLRPPPKKGRQVLIAKVTPGVPVLIGGTDVVLRGGARTDKDYLKLLDTRPAIGTVLNQGDYENFKKSLTSIALRKGYFDSEFTKAQLGIALGLHKAFWDIDYNSGERYRFGHVTFEGSQIRDEYLQNLVPFKEGDEYESKDLAELNRRLSATGWFNSVVVAPQFDKARETKVLPLTGVVSPRTENTIETGVGYSTDVGPRVKATWKKPWMNSYGHSLTTSTSISAPEQTLDFSYKMPLLKNPLEQYYLVQGGFKRTDLNDTESDSTTLVASRYWDLSSGWQRAINLRWSLDHFTQGEITNTTMLFYPGVMISRTRSRGGLMPTWGDSQRYSIDYSNTAWGSDVDFSVFQAQNVWIRTLYDRHRFVTRGTLGWIETGDFDKVPPDLRFFAGGDRSIRGYKYKSIAPKYANGDLKGASKLITGSLEYQYNVTGKWWGAVFVDSGEAVSDIRRSDFKTGTGVGVRWESPVGPIKLDFAVPVADKDEHGLQFYIGLGPEL	soluble

Reference: the DeepSol protein solubility set
